{
  "source": "paper PMC3514653",
  "about": "(Neuromodulation : journal of the International …, 2012)",
  "origin": "cited, not measured here",
  "conditions": "dog, in vivo; cited from earlier work",
  "data": [
    {"molecule": "BDNF: large growth factor (27 KDa); recombinant-methionyl human brain-derived neurotrophic factor (protein, UniProt P23560 19-247, looked up, N-terminal methionine) Neurotrophic factor BDNF …: APMKEANIRGQGGLAYPGVRTHGTLESVNGPKAGSRGLTSLADTFEHVIEELLDEDQKVRPNEENNKDADLYTSRVMLSSQVPLEPPLLFLLEEYKNYLDAANMSMRVRRHSDPARRGELSVCDSISEWVTAADKKTAVDMSGGTVTVLEKVPVSKGQLKQYFYETKCNPMGYTKEGCRGIDKRHWNSQCRTTQSYVRALTMDSKKRIGWRFIRIDTSCVCTLTIKRGR", "values": [
      {"measurement": "Clearance from the CSF (half-life)", "value": 42, "unit": "min"}
    ]}
  ]
}
